Earlier results in paper PMC8465902.

Experiments:
[1] = biological target: IscU (Escherichia coli) (UniProt P0ACD4)
[2] = biological target: ISCU (Homo sapiens) (UniProt Q9H1K1)
Chain of UniProt Q9H1K1 (Q9H1K1 35-167): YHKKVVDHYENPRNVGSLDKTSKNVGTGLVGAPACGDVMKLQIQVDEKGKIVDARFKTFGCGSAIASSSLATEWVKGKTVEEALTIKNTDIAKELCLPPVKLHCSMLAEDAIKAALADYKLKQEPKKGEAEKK

Chain of UniProt P0ACD4 (P0ACD4 whole entry): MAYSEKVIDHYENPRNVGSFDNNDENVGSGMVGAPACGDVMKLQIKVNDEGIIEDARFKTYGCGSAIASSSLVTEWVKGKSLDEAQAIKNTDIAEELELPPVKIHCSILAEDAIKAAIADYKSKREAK

For IscS (from UniProt P0A6B7), the Kd [1] is listed as 2000 nM.

For NFU1 CTD (from UniProt Q9UMS0), the Kd [2] is given as 1100 nM.
